For the assay, the target named is Orai3 N-terminal peptide aa 52–65 (human) (UniProt Q9BRQ5). Kind of assay: SPR. A general note: SPR reads the build-up and loss of mass on a sensor chip optically.

In the case of “Calmodulin from bovine testes (from UniProt P62157 1-149) (natural protein)”, the response (resonance units) (resonance units) is 207.

The values above are taken from publication PMC3173129.
